Measured values reported in the supplement of paper PMC9876800.

System: peptide library, one residue held at a place counted from the S/T acceptor
Assay: relative phosphorylation of the sub-library (ratio to the mean residue at this position); higher = residue favoured
Conditions: human
Summary of the method: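 Relative sub-library phosphorylation, a ratio to the mean residue at that position, was obtained by phosphorimaging and densitometry of spots on streptavidin membranes. Before capture, purified recombinant kinases were incubated for 90 min under kinase-specific conditions with 50 μM biotinylated degenerate peptide sub-libraries and 50 μM ATP spiked with γ-32P-ATP. Each sub-library fixed one residue at one position around a central Ser/Thr.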

STK11, construct: Full length, sequence (Q15831 whole entry, looked up): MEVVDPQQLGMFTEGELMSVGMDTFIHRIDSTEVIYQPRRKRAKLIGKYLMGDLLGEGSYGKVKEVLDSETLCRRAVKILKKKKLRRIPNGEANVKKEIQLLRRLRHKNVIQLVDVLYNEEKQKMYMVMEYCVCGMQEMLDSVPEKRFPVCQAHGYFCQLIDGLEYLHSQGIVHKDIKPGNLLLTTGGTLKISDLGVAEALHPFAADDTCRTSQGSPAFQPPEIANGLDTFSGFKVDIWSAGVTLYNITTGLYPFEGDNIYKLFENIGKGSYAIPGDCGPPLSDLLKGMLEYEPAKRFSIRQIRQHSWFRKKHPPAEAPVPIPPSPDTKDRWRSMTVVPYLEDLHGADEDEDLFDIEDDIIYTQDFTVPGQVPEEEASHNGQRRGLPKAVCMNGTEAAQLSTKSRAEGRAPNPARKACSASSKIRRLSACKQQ
STK32C, construct: aa66-end, sequence (Q86UX6 66-486, looked up): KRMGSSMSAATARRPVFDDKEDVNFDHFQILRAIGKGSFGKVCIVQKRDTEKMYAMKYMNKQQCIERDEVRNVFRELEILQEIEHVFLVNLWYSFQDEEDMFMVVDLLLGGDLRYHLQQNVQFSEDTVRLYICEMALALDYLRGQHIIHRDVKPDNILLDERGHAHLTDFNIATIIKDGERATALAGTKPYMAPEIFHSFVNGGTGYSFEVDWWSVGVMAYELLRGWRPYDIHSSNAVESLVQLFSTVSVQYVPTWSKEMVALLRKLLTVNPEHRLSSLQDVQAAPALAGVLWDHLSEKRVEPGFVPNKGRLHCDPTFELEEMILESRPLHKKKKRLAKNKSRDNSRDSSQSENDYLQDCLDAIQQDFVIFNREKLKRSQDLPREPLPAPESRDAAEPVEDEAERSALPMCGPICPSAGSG

STK11, construct: Full length (from UniProt Q15831)
relative phosphorylation
Conditions	at +1	at +2	at +3	at +4	at -1	at -2	at -3	at -4	at -5
A fixed	1.07	1.17	0.932	1.03	1.34	0.926	0.956	0.936	1.22
D fixed	0.613	0.987	0.787	0.832	0.726	0.407	0.289	0.773	0.827
E fixed	0.417	0.598	0.688	0.75	0.874	0.338	0.312	0.738	0.641
F fixed	0.801	0.907	0.891	0.898	0.582	0.932	1.81	1.5	0.939
G fixed	1.26	1.12	1.62	1.31	0.854	0.82	1.99	1.06	1.28
H fixed	1.27	1.22	1.36	1.13	1.22	0.924	1.17	1.13	1.07
I fixed	0.653	0.711	0.579	0.741	0.349	1.81	0.441	0.485	0.492
K fixed	0.647	0.595	0.892	1.11	1.59	0.867	0.95	0.857	1.49
L fixed	0.974	0.701	0.766	0.952	0.777	2.39	1.14	0.627	0.566
M fixed	1.16	0.714	0.699	0.813	1.3	1.12	1.48	0.685	0.775
N fixed	1.53	1.07	1.21	1.08	1.22	1.06	0.721	0.859	1.19
P fixed	0.597	1.86	1.55	1.71	0.472	0.709	1.16	1.27	1.86
Q fixed	1.57	0.922	1.14	1.17	1.62	0.836	0.728	0.799	0.901
R fixed	1.34	0.692	1.02	0.953	1.84	1.19	0.765	0.828	1.27
V fixed	0.654	0.882	0.7	0.724	0.495	1.06	0.385	0.498	0.532
W fixed	1.36	1.66	1.15	1	0.848	0.712	1.29	2.99	1.17
Y fixed	1.07	1.19	1.01	0.796	0.897	0.903	1.41	0.959	0.775
pThr fixed	0.539	0.947	0.782	0.571	0.36	0.852	0.662	0.713	0.84
pTyr fixed	0.43	0.743	0.736	0.581	0.559	0.553	0.746	0.632	0.897

STK32C, construct: aa66-end (from UniProt Q86UX6)
relative phosphorylation
Conditions	at +1	at +2	at +3	at +4	at -1	at -2	at -3	at -4	at -5
A fixed	0.586	0.613	0.769	0.982	0.776	0.864	0.945	1.11	1.1
D fixed	0.55	0.69	0.689	0.866	0.807	0.64	0.957	1.38	1.18
E fixed	1.12	1.13	0.957	1.46	0.767	0.801	1.03	1.24	0.887
F fixed	2.08	1.21	1.08	0.741	0.739	1.04	0.611	0.759	0.924
G fixed	0.541	0.564	0.682	0.907	1.26	0.918	0.985	1.42	1.32
H fixed	0.588	1.04	1.1	1.02	0.849	0.895	0.645	0.763	0.862
I fixed	1.92	1.03	1.51	0.836	0.592	0.773	0.758	0.812	0.912
K fixed	0.671	0.572	1.05	1.19	1.14	0.826	0.951	0.962	1.05
L fixed	0.965	1.19	0.968	0.832	0.809	1.33	0.772	0.756	0.954
M fixed	1.77	1.09	0.944	0.892	1.09	1.12	0.745	0.94	0.923
N fixed	0.651	0.755	0.836	0.992	1.04	0.841	0.76	0.93	0.882
P fixed	0.399	0.362	0.54	1.21	1.73	1.09	1.04	1.14	1.06
Q fixed	1.18	0.714	0.917	1.07	1.08	0.824	0.796	0.838	0.779
R fixed	1.06	0.743	1.23	1.25	1.97	2.49	3.68	1.38	1.43
V fixed	1.14	0.809	1.33	0.798	0.779	0.745	0.814	0.883	0.854
W fixed	0.863	2.44	1.21	1.05	0.672	0.887	0.698	0.86	0.954
Y fixed	0.919	2.05	1.18	0.899	0.909	0.911	0.804	0.829	0.927
pThr fixed	1.03	2.66	3.27	2.05	1.08	1.28	7.04	1.72	1.18
pTyr fixed	2.11	71.5	5.77	9.82	1.41	2.55	1.39	1.07	1.07
